These results are taken from publication PMC11016754, “Allosteric Probe-Based Colorimetric Assay for Direct Identification and Sensitive Analysis of Methicillin Resistance of Staphylococcus aureus”.

The target of this data set is T1, PBP2a (penicillin binding protein 2a) (Staphylococcus aureus …, UniProt Q53707 25-668).
T1 sequence: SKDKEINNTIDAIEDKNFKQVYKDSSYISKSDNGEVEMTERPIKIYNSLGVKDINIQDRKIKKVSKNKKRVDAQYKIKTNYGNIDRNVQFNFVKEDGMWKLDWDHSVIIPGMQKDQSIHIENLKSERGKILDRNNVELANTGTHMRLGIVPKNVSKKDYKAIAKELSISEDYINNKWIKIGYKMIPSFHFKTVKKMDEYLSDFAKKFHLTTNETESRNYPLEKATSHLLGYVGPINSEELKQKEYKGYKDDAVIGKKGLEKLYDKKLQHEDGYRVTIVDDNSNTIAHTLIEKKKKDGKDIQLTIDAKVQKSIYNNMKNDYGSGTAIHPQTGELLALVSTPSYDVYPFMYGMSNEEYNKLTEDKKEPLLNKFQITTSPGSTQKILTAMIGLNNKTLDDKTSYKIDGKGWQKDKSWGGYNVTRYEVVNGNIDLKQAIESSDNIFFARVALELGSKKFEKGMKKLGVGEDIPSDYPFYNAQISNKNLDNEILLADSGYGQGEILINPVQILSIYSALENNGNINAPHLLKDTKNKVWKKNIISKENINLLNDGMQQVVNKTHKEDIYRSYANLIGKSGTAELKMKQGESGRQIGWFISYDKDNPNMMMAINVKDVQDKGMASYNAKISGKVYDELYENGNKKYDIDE
The experiment in a line: fluorescence dequenching (FAM/BHQ hairpin opening); Binding-assay buffer not stated; amplification assay in PBS, room temperature, 60 min, 100 nM H1. As to conditions: label: FAM and BHQ at the two termini.

B1: H1 probe (allosteric hairpin with PBP2a aptamer section d) (structured_DNA)
DNA: CACCCCACCTCGCTCCCGTGACACTAATGCTATTTTTTTTTATTTCTTTATCCTCAGCTTAGTGTCACTAAGC
As for B1, the binding result is listed as “binds”.
